Measured values reported in patent US20130079286A1 (Pieris, published 2013).

Target: T1, Trx-Aβ28 fusion protein (Escherichia coli (strain K12), UniProt P0AA25 1-76 = thioredoxin, Biotin-labelled through an NHS ester (2:1) in the capture and competitive ELISAs; unlabeled in the direct ELISA and as competitor.)
T1 construct: the entry may be a nucleic acid; also called TrxAbeta28H6
Test: direct ELISA: Trx-Aβ28 coated, mutein titrated, detected via Strep-tag II
Procedure: The Aβ targets Trx-Aβ28 and MBP-Aβ40 as well as the control protein maltose binding protein (MBP) were immobilized at 2 μM in PBS over night. Bound Lcn2 muteins were detected via their Strep-tag II using Streptavidin/AP followed by a chromogenic reaction with pNPP. As a control, the binding of wild-type (wt) lipocalin was tested. The data were fitted to a monovalent binding model.
Alternatively, for a “direct” ELISA, 2 μM unlabeled Aβ40 target from Example 2 was adsorbed onto a 96-well MaxiSorp polystyrene microliter plate (Nunc, Langenselbold, Germany) and incubated with the purified Lcn2 mutein, which was detected via the Strep-tag II using a 1:1500 dilution of Streptavidin/AP conjugate (GE Healthcare UK Ltd, Buckinghamshire, UK). As a control, 2 μM MBP from Example 2 was adsorbed onto the ELISA plate. Absorption at 405 nm was measured in a SpectraMax 250 reader (Molecular Devices, Sunnyvale, USA).

B1: Lcn2 mutein S1-A4 (designed binder)
chain: QDSTSDLIPAPPLSKVPLQQNFQDNQFHGKWYVVGVAGNYTLREDKDPLKMYATIYELKEDKSYNVTSVGFRLKKCNYKIRTFVPGSQPGEFTLGIIKSQPGMTSYLVRVVSTNYNQHAMVFFKTVGQNREMFNITLYGRTKELTSELKENFIRFSKSLGLPENHIVFPVPIDQCIDG
- Kd: 16.2 nM
